Test results reported in patent publication US20060135432A1 (NEUROGENEX, published 2006).
[ ]: non-standard residue; d: D form. dPhe(4-Cl) = N[C@H](Cc1ccc(Cl)cc1)C(=O)O; d2Nal = N[C@H](Cc1ccc2ccccc2c1)C(=O)O; dCit = NC(=O)NCCC[C@@H](N)C(=O)O; d3Pal = N[C@H](Cc1cccnc1)C(=O)O; pGlu = O=C1CC[C@@H](C(=O)O)N1

T1: rat GnRHR (rat, UniProt P30969 1-327)
T1 construct: whole, on cells; also called rat GnRH receptor
T1 sequence (looked up): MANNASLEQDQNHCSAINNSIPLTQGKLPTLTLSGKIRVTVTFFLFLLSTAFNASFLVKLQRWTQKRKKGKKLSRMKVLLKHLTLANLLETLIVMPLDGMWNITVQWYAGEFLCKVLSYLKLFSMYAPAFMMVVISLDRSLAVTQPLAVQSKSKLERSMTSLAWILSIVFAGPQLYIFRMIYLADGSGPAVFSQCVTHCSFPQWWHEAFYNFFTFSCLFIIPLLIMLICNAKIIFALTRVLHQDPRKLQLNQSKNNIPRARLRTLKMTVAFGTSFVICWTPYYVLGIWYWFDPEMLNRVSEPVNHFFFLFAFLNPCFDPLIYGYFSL


Key:
bfGnRHR-3 [1] = biological target: T2, bfGnRHR-3 (bullfrog); assay: displacement of I^125-GnRH-2 from membranes of GH3 cells expressing bfGnRHR-3
T2 construct: whole, on cells; also called bullfrog GnRH receptor 3; bfGnRH receptor
Experimental: (§1) After 48 hours, the cells were homogenized to obtain cellular membranes, which were then dissolved in binding buffer (40 mM Tris, pH 7.4, 2 mM MgCl₂).

bfGnRHR-1 [2] = biological target: bfGnRHR-1 (bullfrog); assay: cell-based or functional assay
bfGnRHR-2 [3] = biological target: bfGnRHR-2 (bullfrog); assay: cell-based or functional assay
bfGnRHR-3 [4] = biological target: T2, bfGnRHR-3; assay: cell-based or functional assay
bfGnRHR-2 [5] = biological target: bfGnRHR-2 (bullfrog); assay: cell-based or functional assay; remark: listed apart in the source
Primate GnRH-2 receptor [6] = biological target: T3, Primate GnRH-2 receptor (Primate (from a CV-1 cell genome)); assay: cell-based or functional assay
Primate GnRH-2 receptor [7] = biological target: T3, Primate GnRH-2 receptor; assay: cell-based or functional assay; remark: listed apart in the source
bfGnRHR-2 [8] = biological target: bfGnRHR-2 (bullfrog); assay: cell-based or functional assay; remark: listed apart in the source
rat GnRHR [9] = biological target: T1, rat GnRHR; assay: displacement of I^125-GnRH-2 from membranes of GH3 cells expressing rat GnRHR
Experimental: as §1

rat GnRHR [10] = biological target: T1, rat GnRHR; assay: cell-based or functional assay
rat GnRHR [11] = biological target: T1, rat GnRHR; assay: cell-based or functional assay; remark: listed apart in the source
bfGnRHR-1 [12] = biological target: bfGnRHR-1 (bullfrog); assay: cell-based or functional assay; remark: listed apart in the source

Row | Binder | log IC50 (bfGnRHR-3 [1]) | Log EC50, inositol phosphate production in GH3 cells expressing the receptor (bfGnRHR-1 [2]) | Log EC50, inositol phosphate production in GH3 cells expressing the receptor (bfGnRHR-2 [3]) | Log EC50, inositol phosphate production in GH3 cells expressing the receptor (bfGnRHR-3 [4]) | Emax (fold-induction), luciferase activation (Primate GnRH-2 receptor [6]) | Ratio^a (EC50 relative to the EC50 of GnRH-2), luciferase activation (Primate GnRH-2 receptor [6]) | also measured
1 | EHWSYGLRPG (pyroGlu at 1; C-terminal amide (GlyNH2); radiolabelled with I^125 where used as tracer in Example 4, also called mGnRH; mammalian GnRH) [GnRH-1] | -7.32 log IC50 (concentration unit not printed) | -8.52 log EC50 (concentration unit not printed) | -5.59 log EC50 (concentration unit not printed) | -8.42 log EC50 (concentration unit not printed) | – | – | inositol phosphate production, concentration needed compared with GnRH-2 (bfGnRHR-2 [5]): ~1000 fold higher concentration than GnRH-2
2 | [pGlu]HWSL[dA]WYPG-NH2 (SMILES CC(C)C[C@H](NC(=O)[C@H](CO)NC(=O)[C@H](Cc1c[nH]c2ccccc12)NC(=O)[C@H](Cc1c[nH]cn1)NC(=O)[C@@H]1CCC(=O)N1)C(=O)N[C@H](C)C(=O)N[C@@H](Cc1c[nH]c2ccccc12)C(=O)N[C@@H](Cc1ccc(O)cc1)C(=O)N1CCC[C@H]1C(=O)NCC(N)=O) [[Leu^5, D-Ala^6]GnRH-2] | – | – | – | – | 6.22 fold-induction | 11 ratio to GnRH-2 | –
3 | [pGlu]HWSH[dA]LYPG-NH2 (SMILES CC(C)C[C@H](NC(=O)[C@@H](C)NC(=O)[C@H](Cc1c[nH]cn1)NC(=O)[C@H](CO)NC(=O)[C@H](Cc1c[nH]c2ccccc12)NC(=O)[C@H](Cc1c[nH]cn1)NC(=O)[C@@H]1CCC(=O)N1)C(=O)N[C@@H](Cc1ccc(O)cc1)C(=O)N1CCC[C@H]1C(=O)NCC(N)=O) [[D-Ala^6, Leu^7]GnRH-2] | – | – | – | – | 9.04 fold-induction | 2.51 ratio to GnRH-2 | –
4 | [pGlu]HWSH[dA]YWPG-NH2 (SMILES C[C@@H](NC(=O)[C@H](Cc1c[nH]cn1)NC(=O)[C@H](CO)NC(=O)[C@H](Cc1c[nH]c2ccccc12)NC(=O)[C@H](Cc1c[nH]cn1)NC(=O)[C@@H]1CCC(=O)N1)C(=O)N[C@@H](Cc1ccc(O)cc1)C(=O)N[C@@H](Cc1c[nH]c2ccccc12)C(=O)N1CCC[C@H]1C(=O)NCC(N)=O) [[D-Ala^6, Tyr^7, Trp^8]GnRH-2] | – | – | – | – | 12.8 fold-induction | 6.61 ratio to GnRH-2 | –
5 | Ac-[d2Nal][dPhe(4-Cl)][d3Pal]SH[dCit]WYP[dA]-NH2 (SMILES CC(=O)N[C@H](Cc1ccc2ccccc2c1)C(=O)N[C@H](Cc1ccc(Cl)cc1)C(=O)N[C@H](Cc1cccnc1)C(=O)N[C@@H](CO)C(=O)N[C@@H](Cc1c[nH]cn1)C(=O)N[C@H](CCCNC(N)=O)C(=O)N[C@@H](Cc1c[nH]c2ccccc12)C(=O)N[C@@H](Cc1ccc(O)cc1)C(=O)N1CCC[C@H]1C(=O)N[C@H](C)C(N)=O) [Trptorelix-2] | – | – | – | – | – | – | Log IC50, inhibition of GnRH-2-induced c-fos-luc luciferase activity (Primate GnRH-2 receptor [7]): -6.19 log IC50 (concentration unit not printed)
6 | [pGlu]HWSY[dA]WLPG-NH2 (SMILES CC(C)C[C@H](NC(=O)[C@H](Cc1c[nH]c2ccccc12)NC(=O)[C@@H](C)NC(=O)[C@H](Cc1ccc(O)cc1)NC(=O)[C@H](CO)NC(=O)[C@H](Cc1c[nH]c2ccccc12)NC(=O)[C@H](Cc1c[nH]cn1)NC(=O)[C@@H]1CCC(=O)N1)C(=O)N1CCC[C@H]1C(=O)NCC(N)=O) [[Tyr^5, D-Ala^6, Leu^8]GnRH-2] | – | – | – | – | 7.35 fold-induction | 3.01 ratio to GnRH-2 | –
7 | Ac-[d2Nal][dPhe(4-Cl)][d3Pal]SY[dCit]WYP[dA]-NH2 [Trptorelix-1] | – | – | – | – | – | – | Log IC50, inhibition of GnRH-2-induced c-fos-luc luciferase activity (Primate GnRH-2 receptor [7]): -5.74 log IC50 (concentration unit not printed); Log IC50, inhibition of GnRH-2-induced inositol phosphate production in GH3 cells expressing the receptor (bfGnRHR-2 [8]): -8.1 log IC50 (concentration unit not printed); inhibition of GnRH-2-induced IP production, sensitivity compared with Cetrorelix (bfGnRHR-2 [5]): 100 fold more sensitive than Cetrorelix
8 | [pGlu]HWSHGWYPG-NH2 (also: I-125 radiolabelled form used as tracer, Purchased from Sigma Co; also called gonadotropin-releasing hormone-2; cGnRH-II) [GnRH-2] | -8.63 log IC50 (concentration unit not printed) | -9.41 log EC50 (concentration unit not printed) | -8.98 log EC50 (concentration unit not printed) | -9.51 log EC50 (concentration unit not printed) | 11.7 fold-induction | 1 ratio to GnRH-2 | log IC50 (rat GnRHR [9]): -6.08 log IC50 (concentration unit not printed); Log EC50, inositol phosphate production in GH3 cells expressing the receptor (rat GnRHR [10]): -8.06 log EC50 (concentration unit not printed); inositol phosphate production, sensitivity compared with GnRH-1 (rat GnRHR [11]): 10 fold lower sensitivity than GnRH-1
9 | [pGlu]HWSH[dW]WYPG-NH2 (SMILES NC(=O)CNC(=O)[C@@H]1CCCN1C(=O)[C@H](Cc1ccc(O)cc1)NC(=O)[C@H](Cc1c[nH]c2ccccc12)NC(=O)[C@@H](Cc1c[nH]c2ccccc12)NC(=O)[C@H](Cc1c[nH]cn1)NC(=O)[C@H](CO)NC(=O)[C@H](Cc1c[nH]c2ccccc12)NC(=O)[C@H](Cc1c[nH]cn1)NC(=O)[C@@H]1CCC(=O)N1) [[D-Trp^6]GnRH-2] | -8.1 log IC50 (concentration unit not printed) | -9.4 log EC50 (concentration unit not printed) | -9.21 log EC50 (concentration unit not printed) | -9.22 log EC50 (concentration unit not printed) | 11.2 fold-induction | 1.2 ratio to GnRH-2 | log IC50 (rat GnRHR [9]): -7.01 log IC50 (concentration unit not printed); Log EC50, inositol phosphate production in GH3 cells expressing the receptor (rat GnRHR [10]): -7.92 log EC50 (concentration unit not printed)
10 | Ac-[d2Nal][dPhe(4-Cl)][d3Pal]SY[dCit]LRP[dA]-NH2 [Cetrorelix] | – | – | – | – | – | – | Log IC50, inhibition of GnRH-2-induced inositol phosphate production in GH3 cells expressing the receptor (bfGnRHR-2 [8]): -6.43 log IC50 (concentration unit not printed)
11 | [pGlu]HWSH[dA]WYPG-NH2 (SMILES C[C@@H](NC(=O)[C@H](Cc1c[nH]cn1)NC(=O)[C@H](CO)NC(=O)[C@H](Cc1c[nH]c2ccccc12)NC(=O)[C@H](Cc1c[nH]cn1)NC(=O)[C@@H]1CCC(=O)N1)C(=O)N[C@@H](Cc1c[nH]c2ccccc12)C(=O)N[C@@H](Cc1ccc(O)cc1)C(=O)N1CCC[C@H]1C(=O)NCC(N)=O, Chemically synthesised by AnyGen Co) [[D-Ala^6]GnRH-2] | -9.83 log IC50 (concentration unit not printed) | -9.91 log EC50 (concentration unit not printed) | -9.91 log EC50 (concentration unit not printed) | -9.89 log EC50 (concentration unit not printed) | 11.8 fold-induction | 0.38 ratio to GnRH-2 | log IC50 (rat GnRHR [9]): -6.85 log IC50 (concentration unit not printed); Log EC50, inositol phosphate production in GH3 cells expressing the receptor (rat GnRHR [10]): -8.49 log EC50 (concentration unit not printed); inositol phosphate production, concentration needed compared with GnRH-2 (bfGnRHR-1 [12]): ~8 fold lower concentration than GnRH-2; inositol phosphate production, sensitivity compared with GnRH-1 (rat GnRHR [11]): 10 fold lower sensitivity than GnRH-1
12 | [pGlu]HWSH[dK]WYPG-NH2 (SMILES NCCCC[C@@H](NC(=O)[C@H](Cc1c[nH]cn1)NC(=O)[C@H](CO)NC(=O)[C@H](Cc1c[nH]c2ccccc12)NC(=O)[C@H](Cc1c[nH]cn1)NC(=O)[C@@H]1CCC(=O)N1)C(=O)N[C@@H](Cc1c[nH]c2ccccc12)C(=O)N[C@@H](Cc1ccc(O)cc1)C(=O)N1CCC[C@H]1C(=O)NCC(N)=O) [[D-Lys^6]GnRH-2] | – | – | – | – | 11.7 fold-induction | 0.66 ratio to GnRH-2 | –
